Data on one substance can be found in US20220288193A1.

Assay [1] addresses antigen X (known antigen used as control in the ELISA of Table 1). In words: indirect ELISA, positive control: antigen X coated, anti-X-IgY applied, row B. Background: ELISA stands for enzyme-linked immunosorbent assay.
The target is the same in assay [2]. In words: indirect ELISA, positive control: antigen X coated, anti-X-IgY applied, row A.

Consider “anti-X-IgY (control IgY against antigen X) (antibody)”, for which the OD in assay [1] is 1.43 OD; in assay [2], 1.33 OD.
